Data published in article doi:10.1101/844506v1.

Substrate: O=[N+]([O-])c1ccc(O[C@@H]2O[C@H](CO)[C@@H](O)[C@H](O)[C@H]2O)cc1
Assay: purified protein
Conditions: no added glucose

B1: B8CYA8 (β-glucosidase from Halothermothrix orenii) (Halothermothrix orenii H 168) (protein)
chain: MAKIIFPEDFIWGAATSSYQIEGAFNEDGKGESIWDRFSHTPGKIENGDTGDIACDHYHLYREDIELMKEIGIRSYRFSTSWPRILPEGKGRVNQKGLDFYKRLVDNLLKANIRPMITLYHWDLPQALQDKGGWTNRDTAKYFAEYARLMFEEFNGLVDLWVTHNEPWVVAFEGHAFGNHAPGTKDFKTALQVAHHLLLSHGMAVDIFREEDLPGEIGITLNLTPAYPAGDSEKDVKAASLLDDYINAWFLSPVFKGSYPEELHHIYEQNLGAFTTQPGDMDIISRDIDFLGINYYSRMVVRHKPGDNLFNAEVVKMEDRPSTEMGWEIYPQGLYDILVRVNKEYTDKPLYITENGAAFDDKLTEEGKIHDEKRINYLGDHFKQAYKALKDGVPLRGYYVWSLMDNFEWAYGYSKRFGLIYVDYENGNRRFLKDSALWYREVIEKGQVEAN
- Km: 1800 ± 100 µM
- kcat: 339.0 ± 28.3 s⁻¹
